Among the data in article PMC3961674 are percent of applied 67B89 recovered from the 92787 resin values, retold here.

The assay has as its target variant 92787 (77405 N-terminally fused to wild-type ubiquitin carrying an S57C substitution) (human) (UniProt P0CG48). As to the kind of experiment: affinity chromatography; 92787 coupled to SulfoLink resin (1 ml columns); 200 μg of 67B89 spiked into 2 ml of PBS, NHDF cell lysate or serum, washed with PBS pH 7.4, eluted with PBS pH 2.2; fractions on SDS-PAGE.

Where only a bound is given, the exact number is not on record here.

Chain of 67B89 (ED-B domain of fibronectin flanked by its N-terminal domains 6 and 7 and C-terminal domains 8 and 9) (P02751 1080-1541): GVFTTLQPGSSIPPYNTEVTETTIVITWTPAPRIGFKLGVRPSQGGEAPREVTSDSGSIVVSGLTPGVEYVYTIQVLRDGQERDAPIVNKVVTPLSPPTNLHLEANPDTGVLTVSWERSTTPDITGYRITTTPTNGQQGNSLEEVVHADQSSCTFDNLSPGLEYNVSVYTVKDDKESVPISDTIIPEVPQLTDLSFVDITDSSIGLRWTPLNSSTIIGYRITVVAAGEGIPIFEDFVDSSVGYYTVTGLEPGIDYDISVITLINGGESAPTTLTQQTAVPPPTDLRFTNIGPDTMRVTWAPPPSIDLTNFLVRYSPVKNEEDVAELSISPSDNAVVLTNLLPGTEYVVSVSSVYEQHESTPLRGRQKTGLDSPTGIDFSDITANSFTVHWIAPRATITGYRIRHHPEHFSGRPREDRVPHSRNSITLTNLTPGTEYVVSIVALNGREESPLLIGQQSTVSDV

Regarding “67B89 (ED-B domain of fibronectin flanked by its N-terminal domains 6 and 7 and C-terminal domains 8 and 9) (from UniProt P02751-7 1080-1541) (domain or fragment)”, the percent of applied 67B89 recovered from the 92787 resin was more than 85%.
